Experimental data from patent US20190169289A1 (Scripps Research, published 2019).
One block for each binder: values may come before it.

Columns and labels:
[1] = target: T1, anti-GCN4 (52SR4 scFv) sCAR with CD8 hinge; test: flow cytometry on CD8 sCAR-T cells, switch 30 min at 4 C, detected with PE-conjugated goat anti-human kappa chain antibody, MFI
T1 construct: 273 is the protein without leader; also called sCAR (long); CD8 sCAR
Source text: Cells were washed two times and analyzed using the Accuri flow cytometer (BD).

CLL1 [2] = target: T2, CLL1 (UniProt Q5QGZ9 1-265, limits assumed); test: cell-based or functional assay
T2 sequence (looked up): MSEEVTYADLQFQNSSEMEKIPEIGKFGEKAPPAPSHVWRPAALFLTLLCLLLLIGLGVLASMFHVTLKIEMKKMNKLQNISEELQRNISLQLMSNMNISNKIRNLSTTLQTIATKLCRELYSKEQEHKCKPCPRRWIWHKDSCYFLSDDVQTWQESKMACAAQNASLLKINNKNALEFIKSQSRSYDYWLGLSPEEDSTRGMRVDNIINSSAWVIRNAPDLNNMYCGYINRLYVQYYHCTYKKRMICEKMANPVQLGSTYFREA

CLL1 [3] = target: T2, CLL1; test: cell-based or functional assay; remark: listed apart in the source

EC50 [1]: 360 pM
B1: anti-CD19 (FMC63) Fab CTBV switch (Fab)
light: DIQMTQTTSSLSASLGDRVTISCRASQDISKYLNWYQQKPDGTVKLLIYHTSRLHSGVPSRFSGSGSGTDYSLTISNLEQEDIATYFCQQGNTLPYTFGGGTKLEIKRTVAAPSVFIFPPSDEQLKSGTASVVCLLNNFYPREAKVQWKVDNALQSGNSQESVTEQDSKDSTYSLSSTLTLSKADYEKHKVYACEVTHQGLSSPVTKSFNRGECGGGGSNYHLENEVARLKKL
heavy: EVKLQESGPGLVAPSQSLSVTCTVSGVSLPDYGVSWIRQPPRKGLEWLGVIWGSETTYYNSALKSRLTIIKDNSKSQVFLKMNSLQTDDTAIYYCAKHYYYGGSYAMDYWGQGTSVTVSSASTKGPSVFPLAPSSKSTSGGTAALGCLVKDYFPEPVTVSWNSGALTSGVHTFPAVLQSSGLYSLSSVVTVPSSSLGTQTYICNVNHKPSNTKVDKKVEPKSCGGGGSNYHLENEVARLKKL
notes: the text prints 97 & 34; also called BV CT

B2: anti-CLL1 (1075.7) Fab switch C (heavy chain C terminus) (Fab, V domains shown)
VH: DIQLQESGPGLVKPSQSLSLTCSVTGYSITSAYYWNWIRQFPGNKLEWMGYISYDGRNNYNPSLKNRISITRDTSKNQFFLKLNSVTTEDTATYYCAKEGDYDVGNYYAMDYWGQGTSVTVSS
VL: ENVLTQSPAIMSASPGEKVTMTCRASSNVISSYVHWYQQRSGASPKLWIYSTSNLASGVPARFSGSGSGTSYSLTISSVEAEDAATYYCQQYSGYPLTFGAGTKLELKR
EC50 of cytotoxicity, long hinge CAR (CLL1 [2]): 3.3 pM
EC50 of cytotoxicity, short hinge CAR (CLL1 [3]): 4.9 pM

B3: anti-CLL1 (1075.7) Fab bivalent switch A + B (Fab, V domains shown)
VH: B2 VH
VL: B2 VL
EC50 of cytotoxicity, long hinge CAR (CLL1 [2]): 0.6 pM
EC50 of cytotoxicity, short hinge CAR (CLL1 [3]): 0.5 pM

B4: anti-CLL1 (1075.7) Fab switch B (HCNT3) (Fab, V domains shown)
VH: B2 VH
VL: B2 VL
EC50 of cytotoxicity, long hinge CAR (CLL1 [2]): 1.3 pM
EC50 of cytotoxicity, short hinge CAR (CLL1 [3]): 0.6 pM

B5: anti-CLL1 (1075.7) Fab switch A (LCNT1) (Fab, V domains shown)
VH: B2 VH
VL: B2 VL
EC50 of cytotoxicity, long hinge CAR (CLL1 [2]): 4.1 pM
EC50 of cytotoxicity, short hinge CAR (CLL1 [3]): 1.5 pM

EC50 [1]: 11700 pM
B6: anti-CD19 (FMC63) Fab HCCT switch (Fab, V domains shown)
VH: EVKLQESGPGLVAPSQSLSVTCTVSGVSLPDYGVSWIRQPPRKGLEWLGVIWGSETTYYNSALKSRLTIIKDNSKSQVFLKMNSLQTDDTAIYYCAKHYYYGGSYAMDYWGQGTSVTVSS
VL: DIQMTQTTSSLSASLGDRVTISCRASQDISKYLNWYQQKPDGTVKLLIYHTSRLHSGVPSRFSGSGSGTDYSLTISNLEQEDIATYFCQQGNTLPYTFGGGTKLEIKR
notes: also called C-terminal switch

binding result [1]: no binding (tested: 10^2 nM)
B7: anti-CD19 (FMC63) Fab with no grafted peptide (Fab, V domains shown)
VH: B6 VH
VL: B6 VL
notes: also called WT; wild type anti-CD19 Fab

EC50 [1]: 690 pM
B8: anti-CD19 (FMC63) Fab NTBV switch (Fab, V domains shown)
VH: B6 VH
VL: B6 VL
notes: also called BV NT

B9: anti-CLL1 (1075.7) Fab switch D (light chain C terminus) (Fab)
light: ENVLTQSPAIMSASPGEKVTMTCRASSNVISSYVHWYQQRSGASPKLWIYSTSNLASGVPARFSGSGSGTSYSLTISSVEAEDAATYYCQQYSGYPLTFGAGTKLELKRAAAAPSVFIFPPSDEQLKSGTASVVCLLNNFYPREAKVQWKVDNALQSGNSQESVTEQDSKDSTYSLSSTLTLSKADYEKHKVYACEVTHQGLSSPVTKSFNRGECGGGGSNYHLENEVARLKKL
heavy: DIQLQESGPGLVKPSQSLSLTCSVTGYSITSAYYWNWIRQFPGNKLEWMGYISYDGRNNYNPSLKNRISITRDTSKNQFFLKLNSVTTEDTATYYCAKEGDYDVGNYYAMDYWGQGTSVTVSSARTKGPSVFPLAPSSKSTSGGTAALGCLVKDYFPEPVTVSWNSGALTSGVHTFPAVLQSSGLYSLSSVVTVPSSSLGTQTYICNVNHKPSNTKVDKKVEPKSC
EC50 of cytotoxicity, long hinge CAR (CLL1 [2]): 2.2 pM
EC50 of cytotoxicity, short hinge CAR (CLL1 [3]): 5.1 pM

B10: anti-CLL1 (1075.7) Fab bivalent switch C + D (Fab)
light: B9 light
heavy: DIQLQESGPGLVKPSQSLSLTCSVTGYSITSAYYWNWIRQFPGNKLEWMGYISYDGRNNYNPSLKNRISITRDTSKNQFFLKLNSVTTEDTATYYCAKEGDYDVGNYYAMDYWGQGTSVTVSSARTKGPSVFPLAPSSKSTSGGTAALGCLVKDYFPEPVTVSWNSGALTSGVHTFPAVLQSSGLYSLSSVVTVPSSSLGTQTYICNVNHKPSNTKVDKKVEPKSCGGGGSNYHLENEVARLKKL
EC50 of cytotoxicity, long hinge CAR (CLL1 [2]): 3.1 pM
EC50 of cytotoxicity, short hinge CAR (CLL1 [3]): 1.2 pM

EC50 [1]: 4600 pM
B11: anti-CD19 (FMC63) Fab LCC1 switch (Fab)
light: DIQMTQTTSSLSASLGDRVTISCRASQDISKYLNWYQQKPDGTVKLLIYHTSRLHSGVPSRFSGSGSGTDYSLTISNLEQEDIATYFCQQGNTLPYTFGGGTKLEIKRTVAAPSVFIFPPSDEQLKSGTASVVCLLNNFYPREAKVQWKVDNALQSGNSQESVTEQDSGGGGSNYHLENEVARLKKLGGGGSDSTYSLSSTLTLSKADYEKHKVYACEVTHQGLSSPVTKSFNRGEC
heavy: EVKLQESGPGLVAPSQSLSVTCTVSGVSLPDYGVSWIRQPPRKGLEWLGVIWGSETTYYNSALKSRLTIIKDNSKSQVFLKMNSLQTDDTAIYYCAKHYYYGGSYAMDYWGQGTSVTVSSASTKGPSVFPLAPSSKSTSGGTAALGCLVKDYFPEPVTVSWNSGALTSGVHTFPAVLQSSGLYSLSSVVTVPSSSLGTQTYICNVNHKPSNTKVDKKVEPKSC
notes: also called anti-CD19 Fab CL1-GCN4

EC50 [1]: 4600 pM
B12: anti-CD19 (FMC63) Fab LCCT switch (Fab)
light: B1 light
heavy: B11 heavy

EC50 [1]: 620 pM
B13: anti-CD19 (FMC63) Fab C1BV switch (Fab)
light: B11 light
heavy: EVKLQESGPGLVAPSQSLSVTCTVSGVSLPDYGVSWIRQPPRKGLEWLGVIWGSETTYYNSALKSRLTIIKDNSKSQVFLKMNSLQTDDTAIYYCAKHYYYGGSYAMDYWGQGTSVTVSSASTKGPSVFPLAPSSNYHLENEVARLKKLSGGTAALGCLVKDYFPEPVTVSWNSGALTSGVHTFPAVLQSSGLYSLSSVVTVPSSSLGTQTYICNVNHKPSNTKVDKKVEPKSC
notes: also called BV C1
